How the values were obtained:
[1] = target: recombinant purified FRα (ECL assay calibrator) (human) (UniProt P15328); assay: ECL sandwich competition; competitors 9F3 capture / 24F12 detection; FRα standard STD03; MORAb-003 10 µg/mL
[2] = target: recombinant purified FRα (ECL assay calibrator) (human) (UniProt P15328); assay: ECL sandwich competition; competitors 9F3 capture / 24F12 detection; FRα standard STD06; MORAb-003 10 µg/mL
[3] = target: recombinant purified FRα (ECL assay calibrator) (human) (UniProt P15328); assay: ECL sandwich competition; competitors 9F3 capture / 24F12 detection; FRα standard STD07; MORAb-003 10 µg/mL
[4] = target: recombinant purified FRα (ECL assay calibrator) (human) (UniProt P15328); assay: ECL sandwich competition; competitors 9F3 capture / 24F12 detection; FRα standard STD07; MORAb-003 50 µg/mL
[5] = target: recombinant purified FRα (ECL assay calibrator) (human) (UniProt P15328); assay: ECL sandwich competition; competitors 9F3 capture / 24F12 detection; FRα standard STD08; MORAb-003 10 µg/mL
[6] = target: endogenous folate receptor alpha in human serum and plasma samples (human) (UniProt P15328); assay: ECL sandwich capture 19D4.B7 / detection 2F11.F8; serum incubated overnight with 10 µg/mL MORAb-003
Sequence of endogenous folate receptor alpha in human serum and plasma samples (human) (P15328 25-234 limits assumed, form in doubt): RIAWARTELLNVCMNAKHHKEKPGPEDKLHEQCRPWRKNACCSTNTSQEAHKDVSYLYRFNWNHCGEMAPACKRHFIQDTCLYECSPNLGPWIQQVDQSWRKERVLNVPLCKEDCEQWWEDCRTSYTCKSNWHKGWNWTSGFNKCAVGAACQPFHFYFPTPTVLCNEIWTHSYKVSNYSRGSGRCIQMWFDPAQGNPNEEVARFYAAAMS

[7] = target: endogenous folate receptor alpha in human serum and plasma samples (human) (UniProt P15328); assay: ECL sandwich capture 24H8.D3 / detection 19D4.B7; serum incubated overnight with 10 µg/mL MORAb-003
[8] = target: recombinant purified FRα (ECL assay calibrator) (human) (UniProt P15328); assay: ECL sandwich capture 6A2.G7 / detection 24H8.F3; calibrator incubated overnight with 10 µg/mL MORAb-003
[9] = target: endogenous folate receptor alpha in human serum and plasma samples (human) (UniProt P15328); assay: ECL sandwich capture 19D4.B7 / detection 1D2.G8.G10; serum incubated overnight with 10 µg/mL MORAb-003
[10] = target: endogenous folate receptor alpha in human serum and plasma samples (human) (UniProt P15328); assay: ECL sandwich capture 1C6.E12.G8 / detection 19D4.B7; serum incubated overnight with 10 µg/mL MORAb-003
[11] = target: endogenous folate receptor alpha in human serum and plasma samples (human) (UniProt P15328); assay: ECL sandwich capture 1D2.G8.G10 / detection 19D4.B7; serum incubated overnight with 10 µg/mL MORAb-003
[12] = target: recombinant purified FRα (ECL assay calibrator) (human) (UniProt P15328); assay: ECL sandwich capture 19D4.B7 / detection 6A2.G7; calibrator incubated overnight with 10 µg/mL MORAb-003
[13] = target: recombinant purified FRα (ECL assay calibrator) (human) (UniProt P15328); assay: ECL sandwich capture 6A2.G7 / detection 19D4.B7; calibrator incubated overnight with 10 µg/mL MORAb-003
[14] = target: recombinant purified FRα (ECL assay calibrator) (human) (UniProt P15328); assay: ECL sandwich capture 19D4.B7 / detection 24H8.D3; calibrator incubated overnight with 10 µg/mL MORAb-003
[15] = target: recombinant purified FRα (ECL assay calibrator) (human) (UniProt P15328); assay: ECL sandwich capture 24H8.D3 / detection 19D4.B7; calibrator incubated overnight with 10 µg/mL MORAb-003
[16] = target: recombinant purified FRα (ECL assay calibrator) (human) (UniProt P15328); assay: ECL sandwich capture 6A2.G7 / detection 1C6.E12.G8; calibrator incubated overnight with 10 µg/mL MORAb-003
[17] = target: endogenous folate receptor alpha in human serum and plasma samples (human) (UniProt P15328); assay: ECL sandwich capture 24H8.F3 / detection 30G6.G6.G4.E9; serum incubated overnight with 10 µg/mL MORAb-003
[18] = target: recombinant purified FRα (ECL assay calibrator) (human) (UniProt P15328); assay: ECL sandwich capture 28H12.G9 / detection 19D4.B7; calibrator incubated overnight with 10 µg/mL MORAb-003
[19] = target: recombinant purified FRα (ECL assay calibrator) (human) (UniProt P15328); assay: ECL sandwich capture 19D4.B7 / detection 1C6.E12.G8; calibrator incubated overnight with 10 µg/mL MORAb-003
[20] = target: recombinant purified FRα (ECL assay calibrator) (human) (UniProt P15328); assay: ECL sandwich capture 19D2.G9 / detection 30G6.G6.G4.E9; calibrator incubated overnight with 10 µg/mL MORAb-003
[21] = target: recombinant purified FRα (ECL assay calibrator) (human) (UniProt P15328); assay: ECL sandwich capture 30G6.G6.G4.E9 / detection 26A9.C4; calibrator incubated overnight with 10 µg/mL MORAb-003
[22] = target: recombinant purified FRα (ECL assay calibrator) (human) (UniProt P15328); assay: ECL sandwich capture 30G6.G6.G4.E9 / detection 28H12.G9; calibrator incubated overnight with 10 µg/mL MORAb-003
[23] = target: recombinant purified FRα (ECL assay calibrator) (human) (UniProt P15328); assay: ECL sandwich capture 1A8.G11.E7 / detection 30G6.G6.G4.E9; calibrator incubated overnight with 10 µg/mL MORAb-003
[24] = target: recombinant purified FRα (ECL assay calibrator) (human) (UniProt P15328); assay: ECL sandwich, positive control +CONT: capture 26B3.F2 (f1) / detection 19D4.B7; calibrator incubated overnight with 10 µg/mL MORAb-003

Sequence of recombinant purified FRα (ECL assay calibrator) (human) (P15328 25-234 limits assumed): as the sequence (P15328 25-234 limits assumed, form in doubt) above

% of signal without MORAb-003 (MORAb-003 interference) [1]: 61%
% of signal without MORAb-003 (MORAb-003 interference) [2]: 103%
% of signal without MORAb-003 (MORAb-003 interference) [3]: 87%
% of signal without MORAb-003 (MORAb-003 interference) [4]: 88%
% of signal without MORAb-003 (MORAb-003 interference) [5]: 121%
Drug suppression of serum [6]: 0.82%
Drug suppression of serum [7]: -2.8%
Drug Suppression of Cal Signal at 500 pg/mL [8]: -5%
Drug suppression of serum [9]: -2.12%
Drug suppression of serum [10]: -52%
Drug suppression of serum [11]: 84.6%
Drug Suppression of Cal Signal at 500 pg/mL [12]: -9%
Drug Suppression of Cal Signal at 500 pg/mL [13]: -13%
Drug Suppression of Cal Signal at 500 pg/mL [14]: -6%
Drug Suppression of Cal Signal at 500 pg/mL [15]: -3%
Drug Suppression of Cal Signal at 500 pg/mL [16]: 6%
Drug suppression of serum [17]: -0.93%
Drug Suppression of Cal Signal at 500 pg/mL [18]: -17%
Drug Suppression of Cal Signal at 500 pg/mL [19]: -18%
Drug Suppression of Cal Signal at 500 pg/mL [20]: -4%
Drug Suppression of Cal Signal at 500 pg/mL [21]: -11%
Drug Suppression of Cal Signal at 500 pg/mL [22]: -15%
Drug Suppression of Cal Signal at 500 pg/mL [23]: -6%
Drug Suppression of Cal Signal at 500 pg/mL [24]: -5%
B1: farletuzumab (MORAb-003) (antibody, part only; not given: Constant regions, V domains shown, not shown: another chain or arm of the molecule)
VH: EVQLVESGGGVVQPGRSLRLSCSASGFTFSGYGLSWVRQAPGKGLEWVAMISSGGSYTYYADSVKGRFAISRDNAKNTLFLQMDSLRPEDTGVYFCARHGDDPAWFAYWGQGTPVTVSS
VL: DIQLTQSPSSLSASVGDRVTITCSVSSSISSNNLHWYQQKPGKAPKPWIYGTSNLASGVPSRFSGSGSGTDYTFTISSLQPEDIATYYCQQWSSYPYMYTFGQGTKVEIK

From patent publication US20180148504A1
